Source: paper PMC7170535

Tests used:
[1] = biological target: complement C3 (human); experiment: SPR; ~2,000 RU C3 immobilised on a CM5 chip by amide coupling; rHC1 or IαI as analyte; HEPES-buffered saline pH 7.5, 0.05% Tween 20, 2 mM Mg2+, 2 mM Mn2+; multicycle kinetics, 1:1 Langmuir
[2] = biological target: recombinant inter-α-inhibitor heavy chain 1 (rHC1), D298A MIDAS mutant (human) (UniProt P19827); experiment: SPR; 1,500 RU rHC1 proteins immobilised on a C1 chip by amide cross-linking; ligand as analyte; HEPES-buffered saline pH 7.5, 0.05% Tween 20, 2 mM Mg2+, 2 mM Mn2+; 50 μl/min; multicycle kinetics, 1:1 Langmuir
[3] = biological target: recombinant inter-α-inhibitor heavy chain 1 (rHC1), wild type (human) (UniProt P19827); experiment: as above
[4] = biological target: recombinant inter-α-inhibitor heavy chain 1 (rHC1), wild type (human) (UniProt P19827); experiment: SPR; 1,500 RU rHC1 proteins immobilised on a C1 chip by amide cross-linking; ligand as analyte; HEPES-buffered saline pH 7.5, 0.05% Tween 20, 10 mM EDTA; 50 μl/min; multicycle kinetics, 1:1 Langmuir

recombinant inter-α-inhibitor heavy chain 1 (rHC1), wild type (human), sequence (P19827 35-672): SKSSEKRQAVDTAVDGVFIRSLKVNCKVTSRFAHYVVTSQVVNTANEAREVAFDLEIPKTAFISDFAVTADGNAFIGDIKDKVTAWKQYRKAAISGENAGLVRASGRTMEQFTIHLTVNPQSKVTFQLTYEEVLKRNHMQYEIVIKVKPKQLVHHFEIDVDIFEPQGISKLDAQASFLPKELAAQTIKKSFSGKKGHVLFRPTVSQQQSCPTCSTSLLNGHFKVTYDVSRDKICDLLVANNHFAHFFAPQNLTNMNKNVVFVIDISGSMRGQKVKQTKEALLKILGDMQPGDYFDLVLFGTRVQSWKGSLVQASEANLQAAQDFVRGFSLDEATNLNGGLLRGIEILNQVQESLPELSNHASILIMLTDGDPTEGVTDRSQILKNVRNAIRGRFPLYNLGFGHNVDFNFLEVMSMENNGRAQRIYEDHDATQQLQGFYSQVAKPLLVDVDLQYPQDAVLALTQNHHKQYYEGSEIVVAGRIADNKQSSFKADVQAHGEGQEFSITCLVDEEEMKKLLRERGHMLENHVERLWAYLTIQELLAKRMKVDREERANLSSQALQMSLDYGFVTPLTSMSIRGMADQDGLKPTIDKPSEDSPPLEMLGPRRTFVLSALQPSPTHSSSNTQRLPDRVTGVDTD
LTBP1 N-terminal region (NT1), recombinant domain (domain or fragment), sequence (Q14766 24-1721): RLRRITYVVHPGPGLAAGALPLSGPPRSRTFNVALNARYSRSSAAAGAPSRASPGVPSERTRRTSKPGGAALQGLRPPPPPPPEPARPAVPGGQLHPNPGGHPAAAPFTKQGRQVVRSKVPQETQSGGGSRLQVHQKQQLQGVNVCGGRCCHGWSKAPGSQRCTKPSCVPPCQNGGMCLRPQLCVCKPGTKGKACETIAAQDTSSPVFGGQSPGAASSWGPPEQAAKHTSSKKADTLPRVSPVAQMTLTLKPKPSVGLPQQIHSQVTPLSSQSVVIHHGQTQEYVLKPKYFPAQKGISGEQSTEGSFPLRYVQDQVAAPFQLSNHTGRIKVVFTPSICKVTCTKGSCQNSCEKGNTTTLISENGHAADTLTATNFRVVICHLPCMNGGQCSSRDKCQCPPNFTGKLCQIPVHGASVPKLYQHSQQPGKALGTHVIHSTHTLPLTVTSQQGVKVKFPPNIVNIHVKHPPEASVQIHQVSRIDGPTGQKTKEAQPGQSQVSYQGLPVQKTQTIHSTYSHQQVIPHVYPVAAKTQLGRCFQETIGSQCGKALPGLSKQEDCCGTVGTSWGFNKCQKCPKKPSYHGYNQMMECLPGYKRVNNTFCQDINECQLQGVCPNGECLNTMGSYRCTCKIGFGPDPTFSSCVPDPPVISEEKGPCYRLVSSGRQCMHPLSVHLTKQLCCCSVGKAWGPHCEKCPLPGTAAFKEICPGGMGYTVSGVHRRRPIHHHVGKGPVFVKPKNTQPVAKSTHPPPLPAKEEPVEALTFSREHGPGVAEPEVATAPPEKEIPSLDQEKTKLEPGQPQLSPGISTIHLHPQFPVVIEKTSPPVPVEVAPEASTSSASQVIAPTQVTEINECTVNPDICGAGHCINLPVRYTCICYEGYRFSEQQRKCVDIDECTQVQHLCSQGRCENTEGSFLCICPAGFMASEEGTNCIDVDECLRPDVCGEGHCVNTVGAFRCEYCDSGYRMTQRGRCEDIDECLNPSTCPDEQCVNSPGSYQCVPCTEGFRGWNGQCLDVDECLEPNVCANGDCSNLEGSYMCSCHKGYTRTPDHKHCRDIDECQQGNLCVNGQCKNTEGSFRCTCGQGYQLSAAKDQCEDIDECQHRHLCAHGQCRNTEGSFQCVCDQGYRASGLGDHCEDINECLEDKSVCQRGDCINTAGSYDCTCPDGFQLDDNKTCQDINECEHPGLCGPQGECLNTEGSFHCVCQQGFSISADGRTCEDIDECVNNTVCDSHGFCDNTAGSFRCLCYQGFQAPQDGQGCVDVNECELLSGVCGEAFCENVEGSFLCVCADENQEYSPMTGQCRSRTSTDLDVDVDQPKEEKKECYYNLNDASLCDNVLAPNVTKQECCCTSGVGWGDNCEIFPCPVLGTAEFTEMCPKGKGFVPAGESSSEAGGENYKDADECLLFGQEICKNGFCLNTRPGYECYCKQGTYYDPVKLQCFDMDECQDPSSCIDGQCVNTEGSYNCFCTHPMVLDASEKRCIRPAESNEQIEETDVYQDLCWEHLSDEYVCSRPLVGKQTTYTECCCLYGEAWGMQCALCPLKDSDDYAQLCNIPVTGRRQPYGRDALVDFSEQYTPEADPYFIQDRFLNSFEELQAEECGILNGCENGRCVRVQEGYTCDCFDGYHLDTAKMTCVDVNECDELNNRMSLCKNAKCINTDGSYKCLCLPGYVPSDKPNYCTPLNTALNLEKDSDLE
recombinant inter-α-inhibitor heavy chain 1 (rHC1), D298A MIDAS mutant (human), sequence (P19827 35-672 D298A): as the sequence (P19827 35-672) above, with D264A counted along it

Row | Kd [1] | Kd [2] | Kd [3] | Kd [4] | Substance
1 | 659 nM |  |  |  | inter-α-inhibitor (IαI) (from UniProt P19827 35-672; P19823 55-702) (complex)
2 |  | 14.9 nM | 16.1 nM |  | TGFβ1-LAP, small latent complex of TGFβ1 (from UniProt P01137 30-278)
3 |  |  | 4.6 nM | 5.1 nM | LTBP1 N-terminal region (NT1), recombinant domain (domain or fragment)
